Assays:
[1] = biological target: T1, RHD5, human monoclonal IgG1 antibody directed against the C1 domain of factor VIII (LMBP 6165CB); test: cell-based or functional assay
[2] = biological target: T1, RHD5, human monoclonal IgG1 antibody …; test: SPR (Biacore), RHD5 immobilised on a CM5 chip, 18B6 injected
[3] = biological target: T1, RHD5, human monoclonal IgG1 antibody …; test: competition ELISA, coated recFVIII, RHD5 at 2 ug/ml pre-incubated with 18B6

T1 sequence (VH, as listed by the source, chain 1 of 2): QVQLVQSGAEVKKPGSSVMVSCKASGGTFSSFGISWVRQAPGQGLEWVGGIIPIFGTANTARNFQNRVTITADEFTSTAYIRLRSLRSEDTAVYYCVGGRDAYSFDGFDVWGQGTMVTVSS
T1 sequence (VL, as listed by the source, chain 2 of 2): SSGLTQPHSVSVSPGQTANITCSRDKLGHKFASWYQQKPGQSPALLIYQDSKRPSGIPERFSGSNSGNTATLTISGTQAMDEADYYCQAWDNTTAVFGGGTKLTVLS

B1: anti-idiotypic monoclonal antibody 18B6 (produced by hybridoma 18B6, CNCM I-3559) (antibody, mouse IgG1, V domains shown)
VH: QVQLQQSGAELAKPGASVKMSCKASGYTFTTYWMHWIKQRPGQDLEWIGYINPTSGYTEYNQNFKDKATLTADKSSSTAYMQLNSLTSEDSAVYFCARSGAYYRYDDAMDSWGQGTSVTVSS
VL: QIVLSQSPAILSASPGEKVTMTCRASSSVSYMNWYQQKPGSSPKPWIYATSNLASGVPARFSGSGSGTSYSLTISRVEAEDAATYYCQQWSSNPPMLTFGAGTKLELK
notes: also called anticorps anti-idiotypique 18B6; clone 18B6 anti-RHD5
With B1 the “neutralisation of the inhibitory (anti-FVIII) activity of RHD5, chromogenic factor VIII test (DADE), RHD5 0.4 ug/ml, FVIII Kogenate 0.5 U/ml” value [1] was 50 % neutralisation at an equimolar RHD5/18B6 ratio, the koff [2] was 1.45e-05 s⁻¹ and the kon [2] was 4260 M⁻¹ s⁻¹. The “RHD5/18B6 molar ratio at 50% inhibition of RHD5 binding to FVIII” value [3] was 2.5 molar ratio RHD5/18B6 and the “percent inhibition of RHD5 binding to FVIII at an equimolar ratio” value [3] was 92%.

Reference: patent WO2009024653A1 (dated 2009)
